The record followed here is patent publication US7323170.

The target in the experiment is human B7.1, membrane associated (human) (UniProt P33681). In words: cell-based or functional assay.
human B7.1, membrane associated (human), sequence (P33681 35-288): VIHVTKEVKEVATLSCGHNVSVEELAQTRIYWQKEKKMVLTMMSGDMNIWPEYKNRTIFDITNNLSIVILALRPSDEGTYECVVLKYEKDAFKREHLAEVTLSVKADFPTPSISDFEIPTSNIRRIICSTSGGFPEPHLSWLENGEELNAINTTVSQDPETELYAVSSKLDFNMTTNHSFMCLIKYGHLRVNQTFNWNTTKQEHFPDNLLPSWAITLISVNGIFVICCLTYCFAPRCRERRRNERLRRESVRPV

With “murine anti-B7.1 monoclonal antibody L307.4”, the inhibition of IL-2 production in mixed lymphocyte reaction (concentration at which inhibitory) turned out to be 10 µg/mL.
